These results are taken from patent publication US20230279117A1 (published 2023).

Test [1] concerns the target T1, cynomolgus monkey PD-L1/His (cynomolgus monkey (Macaca fascicularis), UniProt G7PSE7 19-239).
T1 construct: not shown: His tag
The test is described as follows: ELISA, 200 ng PD-L1 protein coated per well. Here is the method: The monkey PD-L1/His and murine PD-L1/His were expressed and purified in a similar way to the human PD-L1/His as described earlier. […] The synthesized full length mAb was named as Y1-IgG1mc. The ELISA assay was performed essentially in the same way as described in the previous section. Briefly, 200 ng of PD-L1 protein was coated on each well of Nunc MaxiSorp ELISA plate (Cat. No. 442404, Nunc, Thermo Fisher). After washing and blocking, indicated concentrations of anti-PD-L1 mAbs were added and incubated at room temperature for 1 hour. After washing, the bound anti-PD-L1 mAbs were detected using a HRP-conjugated goat anti-human Fc antibody (Cat. No. A0170, Sigma).
In general terms: In an ELISA, binding on a coated surface is turned into a signal by an enzyme label.

In test [2] the target is T2, full length human PD-L1 expressed on cells (human, UniProt Q9NZQ7 19-290). Description: cell-based or functional assay.
T2 sequence (Q9NZQ7 19-290 limits assumed): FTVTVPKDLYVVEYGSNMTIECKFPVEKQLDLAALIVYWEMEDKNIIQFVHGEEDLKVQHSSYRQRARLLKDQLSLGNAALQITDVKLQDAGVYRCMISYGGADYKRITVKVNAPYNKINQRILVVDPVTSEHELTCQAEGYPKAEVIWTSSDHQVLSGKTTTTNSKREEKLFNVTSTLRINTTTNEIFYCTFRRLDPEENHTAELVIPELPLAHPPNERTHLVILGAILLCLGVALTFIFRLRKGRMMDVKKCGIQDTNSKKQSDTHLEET
The target in test [3] is T2, full length human PD-L1 expressed on …. The test is described as follows: FACS competition with CD80/Fc on HEK293/PD-L1 cells.
For test [4] the target is unchanged. Description: FACS competition with PD-1/Fc on HEK293/PD-L1 cells.
Test [5] deals with T3, human PD-L1-ECD/His (human, UniProt Q9NZQ7 19-238).
T3 construct: also called PD-L1/His; human PD-L1/His
T3 sequence (Q9NZQ7 19-238): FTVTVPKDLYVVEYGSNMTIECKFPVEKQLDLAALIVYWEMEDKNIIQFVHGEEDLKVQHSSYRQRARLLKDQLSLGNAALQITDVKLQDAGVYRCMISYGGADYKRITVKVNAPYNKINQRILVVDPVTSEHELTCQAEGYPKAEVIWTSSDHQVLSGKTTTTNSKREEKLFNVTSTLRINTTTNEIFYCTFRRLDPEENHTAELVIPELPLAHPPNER
Description: SPR (BIAcore T-200), Fab, human PD-L1; koff may be too slow to measure. Here is the method:
(§1) For affinity determinations of anti-PD-L1 Fabs, SPR assays were performed using BIAcore™ T-200 (GE Life Sciences). Briefly, human PD-L1/His was coupled to an activated CM5 biosensor chip (Cat. No. BR100530, GE Life Sciences) to achieve approximately 100-200 response units (RU), followed by blocking un-reacted groups with 1 M ethanolamine. A serial dilutions of 0.12 nM to 90 nM Fab samples were injected, mixed into the SPR running buffer (10 mM HEPES, 150 mM NaCl, 0.05% Tween20, pH7.4) at 30 µL/minute, and binding responses on human PD-L1/His were calculated by substracting of RU from a blank flow-cell. Association rates (kₒₙ) and dissociation rates (koff) were calculated using the one-to-one Langmuir binding model (BIA Evaluation Software, GE Life Sciences). The equilibrium dissociation constant (Kd) was calculated as the ratio koff/kₒₙ.
(§2) For affinity determinations of anti-PD-L1 Fabs, SPR assays were conducted using BIAcore™ T-200 instrument (GE Life Sciences, Shanghai, China) as described earlier. Association rates (kₒₙ) and dissociation rates (koff) were calculated using the one-to-one Langmuir binding model (BIA Evaluation Software, GE Life Sciences). The equilibrium dissociation constant (Kd) was calculated as the ratio koff/kₒₙ.

Test [6] addresses T2, full length human PD-L1 expressed on …. Description: FACS competition with CD80/Fc on HEK293/PD-L1 cells. This is another data set of the same source.
Test [7] deals with T1, cynomolgus monkey PD-L1/His. The test is described as follows: SPR (BIAcore T-200), Fab, monkey PD-L1; koff may be too slow to measure. (In general: SPR reads the build-up and loss of mass on a sensor chip optically.)
Test [8] addresses T2, full length human PD-L1 expressed on …. The test is described as follows: FACS competition with PD-1/Fc on HEK293/PD-L1 cells. This is another data set of the same source.
Test [9] has as its target T3, human PD-L1-ECD/His. Description: SPR (BIAcore T-200), PD-L1/His on CM5 chip, Fab injected. Here is the method: as §1
Test [10] concerns the target T1, cynomolgus monkey PD-L1/His. Description: SPR (BIAcore T-200), Fab, monkey PD-L1.
For test [11], the target named is T2, full length human PD-L1 expressed on …. Description: cell-based or functional assay. The source holds these as a separate data set.
The target of test [12] is T3, human PD-L1-ECD/His. The test is described as follows: SPR (BIAcore T-200), PD-L1/His on CM5 chip, Fab injected; koff may be too slow to measure. Here is the method: as §1
The target in test [13] is T3, human PD-L1-ECD/His. Description: SPR (BIAcore T-200), Fab, human PD-L1. Here is the method:
as §1, §2

Changes are numbered by the printed parent chain. Like-named read-outs stand apart in the source and are kept apart here.

T1 sequence (G7PSE7 entry or part of it): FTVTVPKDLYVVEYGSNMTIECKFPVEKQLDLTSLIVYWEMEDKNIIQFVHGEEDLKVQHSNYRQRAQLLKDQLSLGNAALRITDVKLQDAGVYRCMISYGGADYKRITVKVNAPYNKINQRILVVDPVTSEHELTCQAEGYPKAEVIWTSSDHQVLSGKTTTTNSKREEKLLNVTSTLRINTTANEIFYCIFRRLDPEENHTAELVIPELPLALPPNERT

B1: hu333-4B2-IgG1mc (antibody)
heavy: EVQLVESGGGLVQPGGSLRLSCAVSGFSLTSYGVHWVRQAPGKGLEWVAVIWAGGSTNYADSVKGRFTISKDTSKNTVYLQMNSLRAEDTAVYYCAKPYGTSAMDYWGQGTLVTVSSASTKGPSVFPLAPSSKSTSGGTAALGCLVKDYFPEPVTVSWNSGALTSGVHTFPAVLQSSGLYSLSSVVTVPSSSLGTQTYICNVNHKPSNTKVDKKVEPKSCDKTHTCPPCPAPPAAAPSVFLFPPKPKDTLMISRTPEVTCVVVDVSHEDPEVKFNWYVDGVEVHNAKTKPREEQYNSTYRVVSVLTVLHQDWLNGKEYKCKVSNKALAAPIEKTISKAKGQPREPQVYTLPPSRDELTKNQVSLTCLVKGFYPSDIAVEWESNGQPENNYKTTPPVLDSDGSFFLYSKLTVDKSRWQQGNVFSCSVMHEALHNHYTQKSLSLSPGK
light: DIQMTQSPSSLSASVGDRVTITCKASQDVGIVVAWYQQKPGKAPKLLIYWASIRHTGVPSRFSGSGSGTEFTLTISSLQPDDFATYYCQQYSNYPLYTFGQGTKVEIKRTVAAPSVFIFPPSDEQLKSGTASVVCLLNNFYPREAKVQWKVDNALQSGNSQESVTEQDSKDSTYSLSSTLTLSKADYEKHKVYACEVTHQGLSSPVTKSFNRGEC
notes: also called hu333-4B2-IgGlmc
For the molecule B1, in [1], the binding result is “binds”.

B2: hu333-4B2-IgG1mf (antibody)
heavy: B1 heavy with A236G
light: B1 light
As for B2, the binding result in test [1] was “binds”.

B3: hu333-4A2-IgG1mc (antibody)
heavy: B1 heavy with A60V, T73N, S74A
light: B1 light
notes: also called hu333-4A2-IgGlmc
As for B3, in test [1], the binding result is on record as “binds”.

B4: hu333-1A Fab (Fab)
heavy (part 1 of 2): EVQLVESGGGLVQPGGSLRLSCAVSGFSLTSYGVHWVRQAPGKGLEWVAVIWAGGSTNYNSALMSRLTISKDNAKNSVYLQMNSLRAEDTAVYYCAKPYGNSAMDYWGQGTLVTVSS
heavy (part 2 of 2): HHHHHHHH
light: DIQMTQSPSTLSASVGDRVTITCKASQDVGIVVAWYQQKPGKAPKLLIYWASIRHTGVPSRFSGSGSGTEFTLTISSLQPDDFATYYCQQYSNYPLYTFGQGTKLEIK
notes: not shown: human IgG2 CH1 (printed IgG2a-CH1); human constant region of kappa chain
With B4, the “IL-2 release in HuT78/P3Z, IC50” value in test [2] was determined as 0.012 µg/mL. For the same molecule, in test [2], the “IL-2 release in HuT78/PD-1, EC50” value turned out to be 0.066 µg/mL. In addition, the half-maximal inhibitory concentration (IC50) (usually the concentration needed to halve the response being measured) in test [3] amounted to 0.049 µg/mL; in test [4], 0.057 µg/mL.

B5: hu333-4A2 Fab (Fab)
heavy (part 1 of 2): B4 heavy (part 1 of 2) with N60V, S61D, A62S, L63V, M64K, S65G, L67F, S77T, N101T
heavy (part 2 of 2): HHHHHH
light: B4 light with T10S, L105V
notes: not shown: human IgG1-CH1; human constant region of kappa chain
In the case of B5, the off-rate constant (koff) (usually the rate constant with which the complex falls apart) in the test with human PD-L1-ECD/His [5] came to 1.03e-05 s⁻¹; in [7], 9.3e-06 s⁻¹; in the test with human PD-L1-ECD/His [12], 1.03e-05 s⁻¹. Further, the IC50 was 0.045 µg/mL in test [6] and 0.05 µg/mL in test [8]. Also, the equilibrium dissociation constant (Kd) (as a rule, a measure of binding affinity in units of concentration) in the test with human PD-L1-ECD/His [9] amounted to 2.65 pM; in test [10], 2.91 pM; with human PD-L1-ECD/His [13], 2.65 pM. Further, the results for the kon (with human PD-L1-ECD/His [9]; in test [10]; with human PD-L1-ECD/His [13]) were 3.88e+06 M⁻¹ s⁻¹, 3.19e+06 M⁻¹ s⁻¹ and 3.88e+06 M⁻¹ s⁻¹, respectively. In addition, the “IL-2 release in HuT78/P3Z, IC50” value in test [11] amounted to 0.005 µg/mL. The “IL-2 release in HuT78/PD-1, EC50” value in test [11] was determined as 0.05 µg/mL.

B6: hu333-4B2 Fab (Fab)
heavy (part 1 of 2): EVQLVESGGGLVQPGGSLRLSCAVSGFSLTSYGVHWVRQAPGKGLEWVAVIWAGGSTNYADSVKGRFTISKDTSKNTVYLQMNSLRAEDTAVYYCAKPYGTSAMDYWGQGTLVTVSS
heavy (part 2 of 2): HHHHHH
light: B4 light with T10S, L105V
notes: as for B5
For the molecule B6, the results for the koff (with human PD-L1-ECD/His [5]; in [7]; with human PD-L1-ECD/His [12]) were 1.32e-05 s⁻¹, 8e-06 s⁻¹ and 1.32e-05 s⁻¹, respectively. Further, the results for the concentration for half-maximal inhibition (IC50) in test [6] and in test [8] were 0.062 µg/mL and 0.053 µg/mL, respectively. Besides, the Kd with human PD-L1-ECD/His [9] was found to be 3.5 pM; in test [10], 2.5 pM; with human PD-L1-ECD/His [13], 3.5 pM. For the same molecule, the kon (usually the second-order rate constant of association) with human PD-L1-ECD/His [9] amounted to 3.78e+06 M⁻¹ s⁻¹; in [10] it was 3.2e+06 M⁻¹ s⁻¹; with human PD-L1-ECD/His [13], 3.78e+06 M⁻¹ s⁻¹. The “IL-2 release in HuT78/P3Z, IC50” value in [11] was 0.016 µg/mL. In addition, in test [11], the “IL-2 release in HuT78/PD-1, EC50” value was found to be 0.058 µg/mL.
